Measurements as given in article PMC13036084, “Cryo-EM structure of Chlamydomonas reinhardtii Photosystem I complexed with cytochrome c6” (Nature Communications, 2026).

T1: PSAF subunit of Chlamydomonas reinhardtii Photosystem I (Chlamydomonas reinhardtii, UniProt P12356 63-227)
T1 construct: PSAF, Photosystem I subunit, Chlamydomonas reinhardtii; the transit peptide segment is included in the numbering of the PDB data; numbers count on: the mature protein; Stood in the experiment as a subunit of the PSI complex m2
T1 sequence (looked up): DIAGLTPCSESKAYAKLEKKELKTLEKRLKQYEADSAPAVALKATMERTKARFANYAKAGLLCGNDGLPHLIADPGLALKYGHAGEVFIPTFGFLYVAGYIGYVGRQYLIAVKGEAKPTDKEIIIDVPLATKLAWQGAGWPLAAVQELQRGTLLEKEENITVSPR


Biological target: T1, PSAF subunit of Chlamydomonas …
Experiment: cross-linking; non-activated Cyt c6 (4 μM) and PSI (40 μg Chl/mL) in 30 mM HEPES/KOH pH 7.5, 1 mM ascorbate, 0.1 mM DAD, 3 mM MgCl2, 0.03% α-DDM with 5 mM EDC and 10 mM sulfo-NHS, 45 min, room temperature, dark; quenched with 50 mM Tris pH 8.0; SDS-PAGE and Western blot with anti-Cyt c6
Conditions: both partners purified

Row | binding result | Binder
1 | binds | Chlamydomonas reinhardtii cytochrome c6 E69Q/E70Q (natural protein, heme group (heme protein), cytochrome c6, Chlamydomonas reinhardtii; also called Cyt c6 (E69Q/E70Q); E69Q/E70Q double mutant; source: E. coli BL21, co-transformed with pEC86 (Ccm genes), purified (DEAE anion exchange, size exclusion)) ADLALGAQVFNGNCAACHMGGRNSVMPEKTLDKAALEQYLDGGFKVESIIYQVENGKGAMPAWADRLSQQEIQAVAEYVFKQATDAAWKY
2 | binds | Chlamydomonas reinhardtii cytochrome c6 E71Q (natural protein, heme group (heme protein), cytochrome c6, Chlamydomonas reinhardtii; also called Cyt c6 (E71Q); source: E. coli BL21, co-transformed with pEC86 (Ccm genes), purified (DEAE anion exchange, size exclusion)) ADLALGAQVFNGNCAACHMGGRNSVMPEKTLDKAALEQYLDGGFKVESIIYQVENGKGAMPAWADRLSEEQIQAVAEYVFKQATDAAWKY
